{"source": "the nanobody polyreactivity screen of Harvey et al. (2022)"}
{"test": "yeast display, Sf9 membrane polyspecificity reagent, FACS + sequencing; frameworks hold sequencing errors", "outline": "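Sorting gates, low and high (top ~1%), were placed on anti-HA fluorescence to track expression and on streptavidin fluorescence to track reagent binding. A clone's polyreactivity label is taken from the gate it came out of. The reagent was 10% biotinylated, detergent-solubilized Sf9 membrane, applied for 1 hour at 4 °C to galactose-induced yeast display cells.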"}
{"sequence": "QVQLVESGGGLVQAGGSLRLSCAASGRIFGAYAMGWYRQAPGKERELVAAITSGGSTYADSVKGRFTISRDNAKNTVYLQMNSLKPEDTAVYYCAADLITRSDSWWTGWIWEYDYWGQGTQVTVSS", "polyreactivity (PSR sort gate)": "low polyreactivity"}
{"sequence": "QVQLVESGGGLVQAGGSLRLSCAASGRIFGAYAMGWYRQAPGKERELVADIRSTGSTNYADSVKGRFTISRDNAKNTVYLQMNSLKPEDTAVYYCAARWRSRRFGSGFEYWGQGTQVTVSS", "polyreactivity (PSR sort gate)": "high polyreactivity"}
{"sequence": "QVQLVESGGGLVQAGGSLRLSCAASGRIFGCYSMGWYRPAPGKEREEVAAITWSGTSTYYADSVKGRFTISRENAKNTVYLQMNSLQPEDTAVYYCAADSLSGSAPTYYSTLEYWGQGTQVTVSS", "polyreactivity (PSR sort gate)": "low polyreactivity"}
{"sequence": "QVQLVESGGGLVQAGGSLRLSCAASGRIFGDNAMGWYRQAPGKEREFVATINGSGGSTYYADSVKGRFTISRDNAKNTVYLQMNSLKPEDTAVYYCFVQQNYGYDYWGQGTQVTVSS", "polyreactivity (PSR sort gate)": "low polyreactivity"}
{"sequence": "QVQLVESGGGLVQAGGSLRLSCAASGRIFGDNTMGWYRQAPGKERELVAAISFTGGSTYYADSVKGRFSISRDNAKNTVYLQMNSLKPEDTAVYYCNADWVSTWGYDYWGQGTQVTVSS", "polyreactivity (PSR sort gate)": "low polyreactivity"}
{"sequence": "QVQLVESGGGLVQAGGSLRLSCAASGRIFGDYAMGWYRQAPGKERELVAAISYSGGSTYYADSVKGRFTISRDNAKNTVYLQMNSLKPEDTAVYYCNKRWYTYGRYGVQGYDYWGQGTQVTVSS", "polyreactivity (PSR sort gate)": "high polyreactivity"}
{"sequence": "QVQLVESGGGLVQAGGSLRLSCAASGRIFGEYAMGWYRQAPGKERELVAAITSSTGSTYYADSVKGRFTISRDNAKNTVYLQMNSLKPEDTAVYYCAAADLKYASYWYDYWGQGTQVTVSS", "polyreactivity (PSR sort gate)": "low polyreactivity"}
{"sequence": "QVQLVESGGGLVQAGGSLRLSCAASGRIFGFYAMGLYRQAPGKERELVARITLSGGRTYYADSVKGRFTISRDNAKNTVYLQMNSLKPEDTAVYYCAADSIGRLWGYGYWGQGTQVTVSS", "polyreactivity (PSR sort gate)": "high polyreactivity"}
{"sequence": "QVQLVESGGGLVQAGGSLRLSCAASGRIFGFYAMGWYRQAPGKEREFVAAITWSGTNTYYADSVKGRFTISRDNAKNTVYLQMNSLKPEDTAVYYCNARQYYKYGYWGQGTQVTVSS", "polyreactivity (PSR sort gate)": "high polyreactivity"}
{"sequence": "QVQLVESGGGLVQAGGSLRLSCAASGRIFGFYAMGWYRQAPGKERELVADINWSATSTYYADSVKGRFTISRDNAKNTVYLQMNSLKPEDTAVYYCAADVSYRYYWGQVTQVTVSS", "polyreactivity (PSR sort gate)": "low polyreactivity"}
{"sequence": "QVQLVESGGGLVQAGGSLRLSCAASGRIFGFYAMGWYRQAPGKERELVADITSGGSTNYADSVKGRFTISRDNAKNTVYLQMNSLKPEDTAVYYCNALSYVWYRYPGNWDEDDYWGQGTQVTVSS", "polyreactivity (PSR sort gate)": "low polyreactivity"}
{"sequence": "QVQLVESGGGLVQAGGSLRLSCAASGRIFGFYAMGWYRQAPGKERELVARITSGGRTTYADSVKGRFTISRDNAKNTVYLQMNSLKPEDTAVYYCAADARYHGFPKVYYYRGGYDYWGQGTQVTVSS", "polyreactivity (PSR sort gate)": "high polyreactivity"}
{"sequence": "QVQLVESGGGLVQAGGSLRLSCAASGRIFGGNAMGWYRQAPGKERELVAAISKRGGSTYYADSVKWRFTISRDNAKNTVYLQMNILKPEDTAVYYCAATAYADQGLDYGYWGQGTQVTVSS", "polyreactivity (PSR sort gate)": "high polyreactivity"}
{"sequence": "QVQLVESGGGLVQAGGSLRLSCAASGRIFGGNAMGWYRQAPGKERELVAAITSGGTTNYADSVKGRFTISRDNAKNTVYLQMNSLKPEDTAVYYCAADFKPLYYDEYDYWGQGTQVTVSS", "polyreactivity (PSR sort gate)": "low polyreactivity"}
{"sequence": "QVQLVESGGGLVQAGGSLRLSCAASGRIFGGNAMGWYRQAPGKERELVAAITTRGGSTYADSVKGRFTISRDKAKNTVYLQMNSLKPEDTAVYYCAVERSYHGGPRYLVRTYGYWGQGTQVTVSS", "polyreactivity (PSR sort gate)": "low polyreactivity"}
{"sequence": "QVQLVESGGGLVQAGGSLRLSCAASGRIFGGNTMGWYRQAPGKEREFVAAITQSGTRTYYADSVKGRFTISRDNAKNTVYLQMNSLKPEDTAVYYCAATWRQHPGSMGYWGQGTQVTVSS", "polyreactivity (PSR sort gate)": "high polyreactivity"}
{"sequence": "QVQLVESGGGLVQAGGSLRLSCAASGRIFGGYAMGWYRPAPGKERELVAAISSRGGSTYYADSVKGRFTISRDNAKNTVYLQMNSLKPEDTAVYYCAADGRVKGWGQGTQVTVSS", "polyreactivity (PSR sort gate)": "high polyreactivity"}
{"sequence": "QVQLVESGGGLVQAGGSLRLSCAASGRIFGGYAMGWYRQAPGKERELVAAISSGGNTKYADSVKGRFTISRDNAKNTVYLQMNSLKPEDTAVYYCAAKFAQPYYRYDYWGQGTQVTVSS", "polyreactivity (PSR sort gate)": "high polyreactivity"}
{"sequence": "QVQLVESGGGLVQAGGSLRLSCAASGRIFGGYAMGWYRQAPGKERELVASITARGTSTYYADTVKGRFTISRDNAKNTVYLQMNRLKPEDTAVYYCNALYRIYRNQWFISNYGYYYWGQGTQVTVSS", "polyreactivity (PSR sort gate)": "low polyreactivity"}
{"sequence": "QVQLVESGGGLVQAGGSLRLSCAASGRIFGGYAMGWYRQAPGKERELVAVINGGTSTKYADSVKGRFTISRDNAKNTVYLQMNSLKPEDNAVYYCAKTRHDSLQNRNRYDYWGQGTQVTVSS", "polyreactivity (PSR sort gate)": "low polyreactivity"}
{"sequence": "QVQLVESGGGLVQAGGSLRLSCAASGRIFGGYAMGWYRQAPGKERELVAVITDGGSTNYADSVKGRFTISRDNAKNTVYLQMNSLKPEDTAVYYCAADSYGDEPPYDYWGQGTQVTVSS", "polyreactivity (PSR sort gate)": "low polyreactivity"}
{"sequence": "QVQLVESGGGLVQAGGSLRLSCAASGRIFGGYTMGWYRQAPGKERELVAAITSGGSTNYADSVKGRFTISRDNAKNTVYLQMNSLKPEDTAVYYCAATYDGTYDYWGQGTQVTVSS", "polyreactivity (PSR sort gate)": "high polyreactivity"}
{"sequence": "QVQLVESGGGLVQAGGSLRLSCAASGRIFGINVMGWYRPAPGKERELVARITGRGGRTYYADSVKGRFTMSRDNAKNTVYLQMNSLKPEDTAVYYCAADARYEAYDYWGQGTQVTVSS", "polyreactivity (PSR sort gate)": "high polyreactivity"}
{"sequence": "QVQLVESGGGLVQAGGSLRLSCAASGRIFGIYAMGWYRQAPGKERELVAAISKSGARTYYADSVKGRFTISRDNAKNTVFLQMNSLKPEDTAVYYCNAYRRKYYFTYGSWGQGTQVTVSS", "polyreactivity (PSR sort gate)": "high polyreactivity"}
{"sequence": "QVQLVESGGGLVQAGGSLRLSCAASGRIFGIYAMGWYRQAPGKERELVARITGGGSTNYADSVKGRFTISRDNAKNTVYLQMNSLKPEDTAVYYCAATVRRIVGNITRYDYWGQGTQVTVSS", "polyreactivity (PSR sort gate)": "low polyreactivity"}
{"sequence": "QVQLVESGGGLVQAGGSLRLSCAASGRIFGKYAMGWYRQAPGKERELVAAIRITGGSTYYADSVKGRFTISRDNAKNTVYLQMNSLKPEDTAVYYCAAVYKYADVIYDYWGQGTQVTVSS", "polyreactivity (PSR sort gate)": "high polyreactivity"}
{"sequence": "QVQLVESGGGLVQAGGSLRLSCAASGRIFGKYAMGWYRQAPGKERELVATISLSGVRTYYADSVKGRFTISRDNAKNTVYLQMNSLKPEDTAVYYCASCYSSNGDYWGQGTQVTVSS", "polyreactivity (PSR sort gate)": "low polyreactivity"}
{"sequence": "QVQLVESGGGLVQAGGSLRLSCAASGRIFGKYMGWYRQAPGKERELVAAISRNGGRTYYADSVKGRFTISRDNAKNTVYLQMNCLNPEDTAVYYCAAASSRYDYWGQGTQVTVSS", "polyreactivity (PSR sort gate)": "high polyreactivity"}
{"sequence": "QVQLVESGGGLVQAGGSLRLSCAASGRIFGLYAMGWYRQAPGKERELVAAISSRGGNTYYADSVKGRFTISRDDAKNTVYLQMNSLKPEDTAVYYCARDSYSLSRTYDSWGQGTQVTVSS", "polyreactivity (PSR sort gate)": "high polyreactivity"}
{"sequence": "QVQLVESGGGLVQAGGSLRLSCAASGRIFGNNAMGLYRQAPGKERELVAAIRRGGSTYYADSVKGRFTISRDNAKNTVYLQMNSLKPEDTAVYYCAADSSRKHFYWGQGTQVTVSS", "polyreactivity (PSR sort gate)": "high polyreactivity"}
{"sequence": "QVQLVESGGGLVQAGGSLRLSCAASGRIFGNNAMGWYRQAPGKERELVATITRRGGSTYYADSVKGRFTISRDNAKNTVYLQMNSLKPEDTAVYYCAADRWPYWVAFYSWGQGTQVTVSS", "polyreactivity (PSR sort gate)": "high polyreactivity"}
{"sequence": "QVQLVESGGGLVQAGGSLRLSCAASGRIFGNYAMGWYIQAPGKERELVAAISSGGNTNYADSVKGRFTISRDNAKNTVYLQMNSLKPEDTAVYYCAAYHFSFGWIRVDYWGQGTQVTVSS", "polyreactivity (PSR sort gate)": "high polyreactivity"}
{"sequence": "QVQLVESGGGLVQAGGSLRLSCAASGRIFGNYAMGWYRQAPGKERELVAAISGGGSTYYADSVKGRFTISRDNAKNTVYLQLNSLKPEDTAVYYCAARFLWSVFGGKGGYWGQGTQVTVSS", "polyreactivity (PSR sort gate)": "low polyreactivity"}
{"sequence": "QVQLVESGGGLVQAGGSLRLSCAASGRIFGPDAMRWYRQAPRKERELVAAITWRGDRTYYADSVKGRFTISRDIAKNSVYLQINSLKPEDTAVYYCAARGGRSEYDYWGQATQVTVSS", "polyreactivity (PSR sort gate)": "low polyreactivity"}
{"sequence": "QVQLVESGGGLVQAGGSLRLSCAASGRIFGPYAMGWYRQAPGKDRELVASISYSGGSTYYADSVKGRFTISRDKAKNTVYLQMNSLKPEDTAVYYCDKAGYWRGYNYWGQGTQVTVSS", "polyreactivity (PSR sort gate)": "low polyreactivity"}
{"sequence": "QVQLVESGGGLVQAGGSLRLSCAASGRIFGPYAMGWYRQAPGKERELVATITWRTGSTYYADSVKGRFTISRDNAKNTVYLQMNSLKPEDTAVYYCAAQSRQAYITYGYWGQGTQVTVSS", "polyreactivity (PSR sort gate)": "high polyreactivity"}
{"sequence": "QVQLVESGGGLVQAGGSLRLSCAASGRIFGQNAMGWYRQAPGKERELVAVISQSGGRTYYADSVKGRFTISRDNAKNTVYLQMNSLKPEDTAVYYCAKGGYQHYWGQGTQVTVSS", "polyreactivity (PSR sort gate)": "high polyreactivity"}
{"sequence": "QVQLVESGGGLVQAGGSLRLSCAASGRIFGQYAMGWYRQAPGKERELVASISRRGGSTNYADSVKGRFTISRDNAKNTVYLQMNSLKPEDSAVYYCAARTWRRQYYRTRYEYWGQGTQVNVSS", "polyreactivity (PSR sort gate)": "high polyreactivity"}
{"sequence": "QVQLVESGGGLVQAGGSLRLSCAASGRIFGRNAMGWYRKAPGKERELVAAISWRGGNTYYADSVKGRFTISRDNAKNTVYLQMNSLKPEDTAVYYCNTVQYRNEMGYWGQGTQVTVSS", "polyreactivity (PSR sort gate)": "high polyreactivity"}
{"sequence": "QVQLVESGGGLVQAGGSLRLSCAASGRIFGRNAMGWYRQAPGNERELVAAINFGGTSTYYADSVKGRFTISRDNAKNTVYLQMNSLKPEDTAVYYCAARSRQDNFYRSYNSWGQGTQVTVSS", "polyreactivity (PSR sort gate)": "high polyreactivity"}
{"sequence": "QVQLVESGGGLVQAGGSLRLSCAASGRIFGRNTMGWYRKAPGKERELVASIRSGGRTYYADSVKGRFTISRDNAKNTVYLEMNSLKPEDTAVYYCAADNRKSSSSGYDYWGQGTQVTVSS", "polyreactivity (PSR sort gate)": "low polyreactivity"}
{"sequence": "QVQLVESGGGLVQAGGSLRLSCAASGRIFGRYAMGSYRQAPGKERELVAGINSGSTSYADSVRGRFTISRDNAKNTVYLQMNSLKPEDTAVYYCARGPRYRGGWDTFRGFDYWGQGTQVTVSS", "polyreactivity (PSR sort gate)": "low polyreactivity"}
{"sequence": "QVQLVESGGGLVQAGGSLRLSCAASGRIFGRYAMGWYRQAPGKERELVAAISSGTSTNYADSVKGRFTISRDNAKNTVYLQMNSLKPEDTAVYYCAVVLYRHWWYDYWGQGTQVTVSS", "polyreactivity (PSR sort gate)": "high polyreactivity"}
